{
  "source": "paper PMC11685663",
  "target": "recombinant H5 hemagglutinin (rH5) ectodomain from A/Texas/37/2024 (H5N1, clade 2.3.4.4b) (influenza A virus A/Texas/37/2024 (H5N1))",
  "assay": "cryo-EM structure",
  "data": [
    {"substance": "recombinant H5 hemagglutinin (rH5) ectodomain from A/Texas/37/2024 (H5N1, clade 2.3.4.4b) (natural protein)", "values": [
      {"measurement": "stoichiometry N", "result": 3}
    ]}
  ]
}
